Data on 2 proteins can be found in publication PMC11812572, “NuMA is a mitotic adaptor protein that activates dynein and connects it to microtubule minus ends” (The Journal of Cell Biology, 2025).

This series deals with the molecule itself. The experiment in a line: mass photometry; TwoMP mass photometer; 5-20 nM protein in the respective TIRF microscopy assay buffer without methylcellulose; monomer to dimer.

B1: mScarlet-tagged human NuMA C-terminal fragment aa 1560-2115, mScarlet-NuMA^(C-term L) (domain or fragment, UniProt Q14980-1 1560-2115, looked up)
chain: TSDQASKVQQQKLKAVQAQGGESQQEAQRLQAQLNELQAQLSQKEQAAEHYKLQMEKAKTHYDAKKQQNQELQEQLRSLEQLQKENKELRAEAERLGHELQQAGLKTKEAEQTCRHLTAQVRSLEAQVAHADQQLRDLGKFQVATDALKSREPQAKPQLDLSIDSLDLSCEEGTPLSITSKLPRTQPDGTSVPGEPASPISQRLPPKVESLESLYFTPIPARSQAPLESSLDSLGDVFLDSGRKTRSARRRTTQIINITMAKKLDVEEPDSANSSFYSTRSAPASQASLRATSSTQSLARLGSPDYGNSALLSLPGYRPTTRSSARRSQAGVSSGAPPGRNSFYMGTCQDEPEQLDDWNRIAELQQRNRVCPPHLKTCYPLESRPSLSLGTITDEEMKTGDPQETLRRASMQPIQIAEGTGITTRQQRKRVSLEPHQGPGTPESKKATSCFPRPMTPRDRHEGRKQSTTEAQKKAAPASTKQADRRQSMAFSILNTPKKLGNSLLRRGASKKALSKASPNTRSGTRRSPRIATTTASAATAAAIGATPRAKGKAKHLE
notes: NuMA, human, isoform 1 (NM_006185), aa 1560-2115: part of the predicted coiled-coil and the entire C-terminal tail; Mixed population of monomers and dimers by mass photometry; source: Sf21 insect cells (baculovirus), purified (StrepTrap, TEV cleavage, SEC); not shown: Strep-tag II, N-terminal, cleaved; mScarlet, N-terminal, kept
For orientation: stoichiometry N means the number of molecules, sites or subunits per partner or assembly. As to B1, the “stoichiometry N” value turned out to be 2.

B2: AF546- or AF647-labelled SNAP-tagged human NuMA N-terminal fragment (first 705 aa), NuMA^N-term (domain or fragment, UniProt Q14980-1 1-705, looked up)
chain: MTLHATRGAALLSWVNSLHVADPVEAVLQLQDCSIFIKIIDRIHGTEEGQQILKQPVSERLDFVCSFLQKNRKHPSSPECLVSAQKVLEGSELELAKMTMLLLYHSTMSSKSPRDWEQFEYKIQAELAVILKFVLDHEDGLNLNEDLENFLQKAPVPSTCSSTFPEELSPPSHQAKREIRFLELQKVASSSSGNNFLSGSPASPMGDILQTPQFQMRRLKKQLADERSNRDELELELAENRKLLTEKDAQIAMMQQRIDRLALLNEKQAASPLEPKELEELRDKNESLTMRLHETLKQCQDLKTEKSQMDRKINQLSEENGDLSFKLREFASHLQQLQDALNELTEEHSKATQEWLEKQAQLEKELSAALQDKKCLEEKNEILQGKLSQLEEHLSQLQDNPPQEKGEVLGDVLQLETLKQEAATLAANNTQLQARVEMLETERGQQEAKLLAERGHFEEEKQQLSSLITDLQSSISNLSQAKEELEQASQAHGARLTAQVASLTSELTTLNATIQQQDQELAGLKQQAKEKQAQLAQTLQQQEQASQGLRHQVEQLSSSLKQKEQQLKEVAEKQEATRQDHAQQLATAAEEREASLRERDAALKQLEALEKEKAAKLEILQQQLQVANEARDSAQTSVTQAQREKAELSRKVEELQACVETARQEQHEAQAQVAELELQLRSEQQKATEKERVAQEKDQLQEQLQ
modifications: SNAP-tag labelled with SNAP-Surface Alexa Fluor 546 or SNAP-Surface Alexa Fluor 647
notes: nuclear mitotic apparatus protein (NuMA), human, isoform 1 (NM_006185), first 705 aa; two stop codons inserted after aa 705; codon-optimised for S. frugiperda; A PreScission site lies between the SNAP-tag and NuMA; Dimeric by mass photometry; the construct described is SNAP-tagged; also called AF546-NuMA^N-term; AF647-NuMA^N-term; source: Sf21 insect cells (baculovirus), purified (StrepTrap, TEV …)
As to B2, the “stoichiometry N” value turned out to be 2.
